From patent publication US20090298167A1 (Pfizer, published 2009)

T1: human gamma common chain expressed on CHO cells (human, UniProt P31785 23-369)
T1 construct: whole, on cells; Control protein; also called human IL-2R-γ common subunit; human gamma (γ) common chain
T1 sequence (looked up): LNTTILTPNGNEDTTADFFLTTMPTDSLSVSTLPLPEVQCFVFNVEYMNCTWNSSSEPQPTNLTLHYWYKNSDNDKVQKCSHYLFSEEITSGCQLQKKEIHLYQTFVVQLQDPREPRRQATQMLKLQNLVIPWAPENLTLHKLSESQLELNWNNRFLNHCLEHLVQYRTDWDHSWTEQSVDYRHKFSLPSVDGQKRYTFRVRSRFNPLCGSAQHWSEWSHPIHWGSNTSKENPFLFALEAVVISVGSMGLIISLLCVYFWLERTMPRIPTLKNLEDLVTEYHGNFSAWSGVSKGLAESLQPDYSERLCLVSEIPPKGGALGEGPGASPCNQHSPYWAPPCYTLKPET

T2: human IL-2Rβ (human, UniProt P14784 27-239)
T2 construct: Bought
T2 sequence (looked up): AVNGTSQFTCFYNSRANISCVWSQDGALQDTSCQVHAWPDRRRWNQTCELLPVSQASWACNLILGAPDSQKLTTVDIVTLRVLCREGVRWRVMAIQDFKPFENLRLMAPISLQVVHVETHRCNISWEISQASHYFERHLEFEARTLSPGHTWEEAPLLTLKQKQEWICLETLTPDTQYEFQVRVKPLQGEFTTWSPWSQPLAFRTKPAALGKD

B1: AbU (antibody, human IgG1, V domains shown)
VH: QVQLQESGPGLVKPSETLSLTCAVSGYSISSGYYWGWIRQPPGKGLEWIGSISHTGNTYYNPPLKSRVTISVDTSKNQFSLKLSSVTAADTAVYYCARGGGISRPEYWGQGTLVTVSS
VL: SSELTQDPAVSVALGQTVRITCQGDSLRTYYASWYQQKPGQAPVLVIYGKHKRPSGIPDRFSGSSSGNTASLTITGAQAEDEADYYCTTRSNKGNPHVLFGGGTQLTVL
notes: Human IgG1 triple-mutant (L234A, L235A, G237A); Framework limits derived; also called VHP/VL25; VHPTM/VL25
B2: AbO (antibody, human IgG1, V domains shown)
VH: QVQLQESGPGLVKPSETLSLTCAVSGYSISSGYYWGWIRQPPGKGLEWIGSISHTGNTYYNPPLKSRVTISVDTSKNQFSLKLSSVTAADTAVYYCARGGGISRPEYWGQGTLVTVSS
VL: SSELTQDPAVSVALGQTVRITCQGDSLRTYYASWYQQKPGQAPVLVIYGKHKRPSGIPDRFSGSSSGNTASLTITGAQAEDEADYYCVTRSAKGNPHVLFGGGTQLTVL
notes: Human IgG1 triple-mutant (L234A, L235A, G237A); Framework limits derived; also called VHP/VL16; VHPTM/VL16
B3: murine IL-21R-Fc (Fc fusion, not shown: a dimerising Fc or GST)
chain: not shown

What was measured:
[1] = target: T3, cynomolgus monkey IL-21R expressed on CHO cells (cynomolgus monkey); experiment: cell ELISA: CHO cells transiently expressing the receptor, antibody in conditioned medium, HRP anti-human IgG, A450
T3 construct: whole, on cells
Experimental: (§1) FIG. 6 depicts the binding of 21 anti-IL-21R IgGs to CHO cells transiently expressing human IL-21R (FIGS. 6a-c), rat IL-21R (FIGS. 6d-f), cynomolgus monkey IL-21R (FIGS. 6g-i), and human gamma common chain (FIGS. 6j-l). CHO cells were transiently transfected with IL-21R or the control gamma common chain, and binding was detected with HRP-conjugated anti-human IgG in a cell-based ELISA.
(§2) A subset of binding proteins was tested for binding to rat, cynomolgus monkey, human IL-21R, or human IL-2R-γ common subunit expressed transiently on the surfaces of CHO-PA-Dukx cells. Cells were transfected 48 hr prior to the assay. On the day of the assay, cells were washed gently 5× in PBS containing 0.9 mM CaCl₂ and 0.45 mM MgCl₂ (PBS/CaMg) on an automated plate washer (Titertek, Huntsville, Ala.), and blocked for 1 hr at RT in PBS/CaMg/5% nonfat dry milk. Conditioned media from transiently expressed anti-IL-21R IgGs were serially diluted in blocking buffer and added to the cells in the blocked plates for 1 hr at RT. Cells were washed 5× with PBS/CaMg and then incubated with horseradish peroxidase-conjugated anti-human IgG for 1 hr at RT. Cells were then washed 10× in PBS/CaMg and all of the wash buffer was removed. Cells were incubated with 100 μl TMB until the color reaction reached saturation, stopped with 100 μl of 0.18 M H₂SO₄, and read at A450 on a Perkin Elmer ENVISION™ plate reader.

[2] = target: rat IL-21R expressed on cells (rat); experiment: cell-based or functional assay
[3] = target: T4, human IL-21R expressed on cells (human, UniProt Q9HBE5 20-538); experiment: cell ELISA on transfected CHO cells, 13 nM IgG
T4 construct: Transfected BaF3, TF1 and CHO cells; also native on primary human B and CD4+ T cells; also called hIL-21R; human IL-21R-BaF3 cells
T4 sequence (Q9HBE5 20-538 limits assumed): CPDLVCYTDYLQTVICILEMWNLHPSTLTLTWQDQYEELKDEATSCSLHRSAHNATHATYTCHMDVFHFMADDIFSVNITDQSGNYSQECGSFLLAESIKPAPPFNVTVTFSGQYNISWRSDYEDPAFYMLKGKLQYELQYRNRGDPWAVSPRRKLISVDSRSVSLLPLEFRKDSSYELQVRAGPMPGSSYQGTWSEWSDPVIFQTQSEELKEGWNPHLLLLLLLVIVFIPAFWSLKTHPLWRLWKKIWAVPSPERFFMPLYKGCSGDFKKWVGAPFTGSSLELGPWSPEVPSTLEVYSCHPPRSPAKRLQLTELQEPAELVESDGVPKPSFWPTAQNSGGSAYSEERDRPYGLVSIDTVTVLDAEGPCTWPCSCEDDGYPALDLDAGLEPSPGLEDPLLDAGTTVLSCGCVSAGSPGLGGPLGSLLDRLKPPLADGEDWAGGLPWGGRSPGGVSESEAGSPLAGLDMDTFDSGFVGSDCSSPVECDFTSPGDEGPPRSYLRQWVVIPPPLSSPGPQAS

[4] = target: T5, rat IL-21R expressed on cells (rat); experiment: cell ELISA on transfected CHO cells, 13 nM IgG
T5 construct: whole, on cells; Transiently transfected CHO-PA-Dukx cells

[5] = target: T1, human gamma common chain expressed on …; experiment: cell ELISA on transfected CHO cells, 13 nM IgG
[6] = target: T3, cynomolgus monkey IL-21R expressed on …; experiment: cell ELISA on transfected CHO cells, 13 nM IgG
[7] = target: T6, murine IL-21R expressed on cells (murine, UniProt Q9JHX3 20-529); experiment: cell-based or functional assay
T6 sequence (Q9JHX3 20-529 limits assumed): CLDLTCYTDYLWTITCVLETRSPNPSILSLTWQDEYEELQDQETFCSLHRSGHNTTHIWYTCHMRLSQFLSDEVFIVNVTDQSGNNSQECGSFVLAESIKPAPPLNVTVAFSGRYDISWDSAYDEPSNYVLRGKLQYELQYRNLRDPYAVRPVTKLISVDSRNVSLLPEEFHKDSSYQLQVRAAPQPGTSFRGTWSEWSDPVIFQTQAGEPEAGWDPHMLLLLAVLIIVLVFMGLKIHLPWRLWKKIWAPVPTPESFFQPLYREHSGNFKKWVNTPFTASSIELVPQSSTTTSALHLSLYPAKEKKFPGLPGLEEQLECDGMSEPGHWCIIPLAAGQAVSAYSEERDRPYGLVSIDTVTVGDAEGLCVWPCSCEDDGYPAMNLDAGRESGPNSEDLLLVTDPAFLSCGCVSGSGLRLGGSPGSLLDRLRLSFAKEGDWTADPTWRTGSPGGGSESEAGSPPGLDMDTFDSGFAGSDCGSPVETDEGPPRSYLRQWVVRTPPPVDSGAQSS

human soluble IL-4R = target: T7, human soluble IL-4R (human, UniProt P24394 26-231, limits assumed); experiment: BIACORE: antibody captured on anti-human IgG, 50 nM analyte injected
T7 construct: soluble; also called human sIL-4R
T7 sequence (P24394 26-231 limits assumed): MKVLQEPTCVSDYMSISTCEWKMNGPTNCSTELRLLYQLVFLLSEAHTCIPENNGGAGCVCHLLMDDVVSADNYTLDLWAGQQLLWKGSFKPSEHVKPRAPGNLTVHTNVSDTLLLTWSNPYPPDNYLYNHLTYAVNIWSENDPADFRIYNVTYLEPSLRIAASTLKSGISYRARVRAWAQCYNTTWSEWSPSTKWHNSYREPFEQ
Experimental: (§3) The specificity of binding of a subset of transiently expressed anti-IL-21R binding proteins (here antibodies) was tested on a BIACORE™ 2000 surface plasmon resonance instrument. Anti-human-IgG, anti-murine immunoglobulin antibodies, and murine IL-21R-H/F were immobilized onto a research-grade carboxymethyl-dextran chip (CM5) using standard amine coupling. The sensor chip surface was activated with EDC/NHS for 7 min at a flow rate of 20 μl/min. The first flow cell was used as reference surface to correct for bulk refractive index, matrix effects, and nonspecific binding. […] Remaining activated groups were blocked with 1.0 M ethanolamine (pH 8.0). The molecular weights of the anti-human IgG and the anti-murine IgG were both 150 kD, and the molecular weight of the IL-21R monomer was 27 kD.
(§4) Conditioned media containing anti-IL-21R antibodies and antibody controls (murine anti-human IL-2Rβ and murine anti-human IL-4R(R&D Systems, Minneapolis, Minn.); human anti-human IL-13 (Wyeth, Cambridge, Mass.)) were diluted in HBS/EP buffer supplemented with 0.2% bovine serum and injected onto all four flow cells of the BIACORE™ chip, capturing 500-700 (RU) of antibody on the species-appropriate capture antibody. Following a 5 sec washing period, 50 nM solutions of a positive control protein (murine IL-21R-H/F), two human proteins related to IL-21R (human IL-2Rβ and human sIL-4R(R&D Systems)), or an unrelated His/FLAG-tagged protein (human IL-13-H/F), were injected over the captured antibodies on the chip. The association and dissociation phases were monitored for 120 and 180 sec, respectively, followed by two 5 μl injections of glycine (pH 1.5) to regenerate a fully active capturing surface. All binding experiments were done at 25° C. in HBS/EP buffer. Blank and buffer effects were subtracted for each sensorgram using double referencing.

human IL-2Rβ = target: T2, human IL-2Rβ; experiment: as above
Experimental: as §3, §4

human IL-13-His/FLAG = target: T8, human IL-13-His/FLAG (human, UniProt P35225 35-146, limits assumed); experiment: as above
T8 construct: Unrelated His/FLAG-tagged control; also called human IL-13-H/F
T8 sequence (P35225 35-146 limits assumed): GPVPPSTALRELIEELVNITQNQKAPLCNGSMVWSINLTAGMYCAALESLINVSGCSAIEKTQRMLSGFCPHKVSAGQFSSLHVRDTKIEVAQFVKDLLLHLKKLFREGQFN
Experimental: as §3, §4

[8] = target: T4, human IL-21R expressed on cells; experiment: cell-based or functional assay
[9] = target: T4, human IL-21R expressed on cells; experiment: cell-based or functional assay; remark: listed apart in the source
[10] = target: T6, murine IL-21R expressed on cells; experiment: cell-based or functional assay; remark: listed apart in the source
[11] = target: T4, human IL-21R expressed on cells; experiment: cell-based or functional assay; remark: listed apart in the source
[12] = target: T4, human IL-21R expressed on cells; experiment: cell ELISA: CHO cells transiently expressing the receptor, antibody in conditioned medium, HRP anti-human IgG, A450
Experimental: as §1, §2

murine IL-21 = murine IL-21 (murine, UniProt Q9ES17 18-146); experiment: cell-based or functional assay

Binder	EC50 (read off the curve) [1] [nM]	IC50 (nM) experiment 1, rat T cell proliferation [2] [nM]	IC50 (nM) experiment 2, rat T cell proliferation [2] [nM]	A450 at 13 nM Ab in cell ELISA [3] [A450]	A450 at 13 nM Ab in cell ELISA [4] [A450]	A450 at 13 nM Ab in cell ELISA [5] [A450]	A450 at 13 nM Ab in cell ELISA [6] [A450]	Neutralization of T cell Proliferation IC50 (nM), murine primary CD8+ T cells [7] [nM]	binding result (human soluble IL-4R)	binding result (human IL-2Rβ)	binding result (human IL-13-His/FLAG)	Neutralization of T cell Proliferation IC50 (nM), human primary CD4+ T cells [8] [nM]	Human IL-21R-BaF3 Proliferation IC50 [9] [nM]	Human IL-21R-TF1 Proliferation IC50 [9] [nM]	Murine IL-21R-BaF3 Proliferation IC50 [10] [nM]	Neutralization of B cell proliferation IC50 [11] [nM]	EC50 (read off the curve) [12] [nM]	Murine IL-21R-BaF3 Neutralization IC50 (murine IL-21) [nM]
B1	~0.8	173	105	1.29	0.927	0.104	1.31	1.79	no binding (tested: 50 nM)	no binding (tested: 50 nM)	no binding (tested: 50 nM)	0.03	0.73	3.13	0.184	0.13		
B2				1.11	1.1	0.108	1.36	4.92	no binding (tested: 50 nM)	no binding (tested: 50 nM)	no binding (tested: 50 nM)	0.06	0.52	2.91	0.065		~0.3	
B3																		0.04
